System: intracellular proteome of ENR+CD and ENR organoids
Experiment: LC-MS/MS TMT proteomics of ENR+CD versus ENR organoids
Assay type: cell-based, C57BL/6 mice
Details: for Average logFC: ENR+CD versus ENR organoids, sample pairs in aggregate (n=4, 2 technical replicates from two biological donors); for M1-1 Log2 Median Normalized / M1-2 Log2 Median Normalized / M2-1 Log2 Median Normalized / M2-2 Log2 Median Normalized: protein abundance ratio ENR+CD versus ENR organoids, LC-MS/MS TMT proteomics; for M1-1 Log2 Median Normalized: sample pair M1-1; for M1-2 Log2 Median Normalized: sample pair M1-2; for M2-1 Log2 Median Normalized: sample pair M2-1; for M2-2 Log2 Median Normalized: sample pair M2-2; for change: up = enriched in ENR+CD, down = enriched in ENR, FDR<0.05 and log fold change cut-off

Molecule	Average logFC	M1-1 Log2 Median Normalized	M1-2 Log2 Median Normalized	M2-1 Log2 Median Normalized	M2-2 Log2 Median Normalized	change
Q8BM96 (protein, UniProt Q8BM96 1-785, looked up, full-length) MRSCRSCNVRVLVAIVCGLLTGIVLGLGIWRMVIRINRGIFVPVPSIPVQFCRNGGTWQNGRCICTEEWKGLRCTIANFCENSTDGEFTFGSIPVGRYGPSLQTCEPGTLNAGSPKATRLCNVSEFGNIELQNVTKGSCNINLQTLEIQINNQTASAENISREAQVLTADASKLTAQNITSATTVVGQIFGKANNESQAKKTAIATVSQILDASEDVFQKAAEMDNSKSFSNLIKQMENYSYSQGDQTVVEPNIAIQSVTRDDNSGPSVLFSVQKGSSNSLVSGRILINKTANGLNPDGQTELQILLNTGENRKSCGFMVYQNHKLFQSKTFTATSDFSQKIISSKINESEQQRQNKVSVEMVFNPTYDKRELRLHSYACVYWNFLINDWDTQGCQKTGNTTEFLRCNCSHTTNFAVLMSFKKDYKYPKSLDILSNIGCALSIAGLALTILFQILTRKIRKTSVTWVLVSLCSSMLIFNLLFVFGIENSNKNLKTSDSDINVKPENNKIPESDTIETPNPSCTAIAALLHYFLLVTFTWNGLSATQLYFLLIRTMKPLPRHFIIFISLVGWGVPAIIVGVTIGSIYALSGNKRYWELDYRQEEICWLAVPKDNDYARSPLLWSFIIPVTIILITNITIFVIITVKVLWKNNQNLTSTKKVSSLKKVFSTLSIAVVFGVTWILAYAMLISNDDIRIVFSYIFCLFNTTQGLQIFILYTVRTKVFQSEASKILKSLSSSFDRTKPMPSITPLKLRVRMYNMLRSLPSLNERFRLLEPSGMTEETSLS	−1.142	−0.895	−1.193	−1.2285	−1.142	down
Q80Z37 (protein, UniProt Q80Z37 1-1033, looked up, full-length) MGSQPPPPGSPLSREEGEAPPLVPAEEGRRRSRRVRLRGSCRHRPSLLSRRELASNGPAVPATASSEIMASAAKEFKMDNFSPKAGTSKLQQTVPADASPDSKCPICLDRFDNVSYLDRCLHKFCFRCVQEWSKNKAECPLCKQPFDSIFHSVRAEDDFKEYVLRPSYNGSFTNPEVRRFRYRTTMTRERSASLYSPSSTVSRRTTTPPDSGVLFEGLGISTRPRDVDIPQFMRQMALRGPTTTDERSLRKIQEQDIINFRRTLYRAGVRVRSIEDGGRYRDISAEFFRRNPACLHRLVPWLKRELTVLFGAHGSLVNIVQHIIMSNVTRYDLESQAFVSDLRPFLLNRTEHFIHEFISFARSPFNMAAFDQHANYDCPPSSEEGSRSDSSVITISPDEAETQELDMNASTVRQAPWDDETPGPSYSSSEQVHVGVSSLLNSSDSSDEELVSGGTTSQIQGVQTNDDVNNDSDSSSDNCVIVGFVKPLAERTPELVELSSDSEELGPYEKVETVKTQEQEQSYSSGDSDVSRASSPRSVLGKDEQMSKSHCDSDTRISSKKEEKRSTSLPAPRDSSSTRGDRVCSPYNHRHRKGGRSRSSDSRSQSRSGHDPRNHRKHGKKRLRNKRSRSRESSSRPRARKDKKRSRTRDSSWSRRSQTLSLSSGSTSRSRSRSSDHGKRRSRSRNRDRYYLRNNYGSKYKWEYTYYSRNKDRDGYESSYRRRTLSRAHYSRQSSSPEFRIQSFSERTNARKKNHSERKYYYYERRRSRSVSSNRSRTTSAGPDRVRNEKPGGKRKYKTRHLEGTSEEAQPAREFTSKGKDSHYQKSKLDGSYKNESDSFSDSRSSDRETKHKRRRRRTRSLSVEIVYEGKATDTSKHHKKKKKKHKKKHKKHHGDNTSRSPVVITIDSDSDGESEVKAGIECSNGSLPQPIQDGAFETKDVVTIEDELGVLDKDCDVTALADDLSTSQTVENCDSPAVPVEQTLDVREESTFASDLESQSSNVSIQAEPSRPVPSPRTSLSSVSPGRDCDVS	1.193	1.31	0.914	1.7665	0.782	up
Q7TNV0 (protein, UniProt Q7TNV0 1-380, looked up, full-length) MSAAAAPAAEGEDAPVPPSSEKEPEMPGPREESEEEEEDDEDDDEEDEEEEKEKSLIVEGKREKKKVERLTMQVSSLQREPFTVTQGKGQKLCEIERIHFFLSKKKPDELRNLHKLLYNRPGTVSSLKKNVGQFSGFPFEKGSTQYKKKEEMLKKFRNAMLKSICEVLDLERSGVNSELVKRILNFLMHPKPSGKPLPKSKKSSSKGSKKERNSSGTTRKSKQTKCPEILSDESSSDEDEKKNKEESSEDEEKESEEEQPPKKTSKKEKAKQKATAKSKKSVKSANVKKADSSTTKKNQKSSKKESESEDSSDDEPLIKKLKKPPTDEELKETVKKLLADANLEEVTMKQICKEVYENYPAYDLTERKDFIKTTVKELIS	−1.42	−1.8	−0.726	−1.2915	−1.861	down
Q8BK48 (protein, UniProt Q8BK48 1-559, looked up, full-length) MPLYKLLGWLNAVACGVLLLVLHVQGQDSASPIRNTHTGQVRGSLVHVKDTDIAVHTFLGIPFAKPPVGPLRFAPPEAPEPWSGVRDGTSHPNMCLQNDNLMGSEDLKMMNLILPPISMSEDCLYLNIYVPAHAHEGSNLPVMVWIHGGALTVGMASMYDGSMLAATEDVVVVAIQYRLGVLGFFSTGDQHAKGNWGYLDQVAALRWVQQNIVHFGGNPDRVTIFGESAGGTSVSSHVVSPMSQGLFHGAIMESGVAVLPDLISSSSEMVHRIVANLSGCAAVNSETLMCCLRGKNEAEMLAINKVFKIIPGVVDGEFLPKHPQELMASKDFHPVPSIIGINNDEYGWILPTIMDPAQKIEEITRKTLPAVLKSTALKMMLPPECGDLLMEEYMGDTEDPETLQAQFREMKGDFMFVIPALQVAHFQRSHAPVYFYEFQHRPSFFKDFRPPYVKADHGDEIFLVFGYQFGNIKLPYTEEEEQLSRRIMKYWANFARHGNPNSEGLPYWPVMDHDEQYLQLDIQPSVGRALKARRLQFWTKTLPQKIQELKGSQERHKEL	−1.69	−1.646	−1.907	−2.1625	−1.046	down
Q80XU3 (protein, UniProt Q80XU3 1-234, looked up, full-length) MSRPVRNRKVVDYSQFQESDDADEDYGRDSGPPAKKIRSSPREAKNKRRSGKNSQEDSEDSEEKDVKTKKDDSHSAEDSEDEKDDHKNVRQQRQAASKAASKQREMLLEDVGSEEEPEEDDEAPFQEKDSGSDEDFLMEDDDDSDYGSSKKKNKKMVKKSKPERKEKKMPKPRLKATVTPSPVKGKAKVGRPTASKKSKEKTPSPKEEDEEAESPPEKKSGDEGSEDEASSGED	−1.313	−1.892	−0.72	−1.5225	−1.116	down
Q80V42 (protein, UniProt Q80V42 1-443, looked up, full-length) MDRARLWLGLLLPVVAALDFRYHHQEGMEAFLKSVAQNYSSITHLHSIGKSVRGRNLWVLVVGQTPKEHRVGIPEFKYVANMHGDETVGRELLLHLIDYLVSSYRKDPEITHLIDSTRIHIMPSMNPDGFEAVQKPDCYYSNGRENYNNYDLNRNFPDAFENNNVTKQPETLAIMEWLKTETFVLSANLHGGALVASYPFDNGVQATGTLLSRSLTPDDDVFQHLAYTYASRNPNMTKGDQCKNKRNFPNGIINGYSWYPLQGGMQDYNYIWAQCFEITLELSCCKYPREEKLPLFWNDNKASLIEYIKQVHLGVKGQVFDQSGAPLPNVIVEVQDRKHICPFRTNKLGEYYLLLLPGSYVINVTVPGHDSYLTKLTIPGKSQPFSALKKDFHLPLRWQPDSISVSNPSCPMIPLYKFMPSHSAATKPSLGVFFMTLLYVFFK	1.366	1.517	1.383	1.3355	1.228	up
Q768S4 (protein, UniProt Q768S4 1-302, looked up, full-length) MADTIFSSGNDQWVCPNDRQLALRAKLQTGWSVHTYQTEKQRRSQCLSPGELEIILQVIQRAERLDILEQQRIGRLVERLETMQRNVMGNGLSQCLLCGEVLGFLGSSSVFCKDCRKKVCTKCGIEASPGQKRPLWLCKICSEQREVWKRSGAWFYKGLPKYILPLKTPGRADDPHFRPLPVEPTETQPPSAETSRVYTWARGRVVSSDSDSDSDLSSSSLEDRPLPSGVKGTKGDKPRGDSGASMESPRLGPARPPSHLSGSQSSLGSEAGTGATEPQGGTPAQPEPRVPGKRHTWATPRY	1.363	1.2	0.548	1.8455	1.859	up
Q7TQD2 (protein, UniProt Q7TQD2 1-218, looked up, full-length) MADSKAKPAKAANKTPPKSPGDPARAAKRLSLESEGANEGATAAPELSALEEAFRRFAVHGDTRATGKEMHGKNWSKLCKDCHVIDGKNVTVTDVDIVFSKIKGKSCRTITFEQFQEALEELAKKRFKDKSSEEAVREVHRLIEGRAPVISGVTKAVSSPTVSRLTDTSKFTGSHKERFDQSGKGKGKAGRVDLVDESGYVPGYKHAGTYDQKVQGGK	1.241	1.195	1.666	0.7645	1.337	up

Reference: US11994512B2, “Single-cell genomic methods to generate ex vivo cell systems that recapitulate in vivo biology with improved fidelity” (Massachusetts Institute of Technology, priority 2018, dated 2024)
